Source: US20020151484A1 (HYBRIGENICS, published 2002)

Key:
Assay in all cases: yeast two-hybrid, mating, His3/LacZ reporters
[1] = biological target: T1, Bait polypeptide of SEQ ID No 77, Core (87%), HCV strain H77 nt 302-614 (hepatitis C virus strain H77)
T1 construct: also called Bait Core (87%)
T1 chain: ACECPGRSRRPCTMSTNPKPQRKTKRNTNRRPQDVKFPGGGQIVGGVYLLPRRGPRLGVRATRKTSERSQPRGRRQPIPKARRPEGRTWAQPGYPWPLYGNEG

[2] = biological target: T2, Bait polypeptide of SEQ ID No 87, NS3 (100%), HCV strain H77 nt 4238-4857 (hepatitis C virus strain H77, UniProt P27958 1300-1504)
T2 construct: also called Bait NS3 (100%)
T2 chain: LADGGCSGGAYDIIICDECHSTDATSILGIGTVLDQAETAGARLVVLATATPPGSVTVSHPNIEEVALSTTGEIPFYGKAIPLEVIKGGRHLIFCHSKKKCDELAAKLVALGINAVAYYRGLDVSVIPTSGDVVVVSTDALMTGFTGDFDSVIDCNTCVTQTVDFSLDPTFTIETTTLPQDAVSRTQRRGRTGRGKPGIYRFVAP

[3] = biological target: T3, Bait polypeptide of SEQ ID No 89, NS3 (100%), HCV strain H77 nt 4691-5168 (hepatitis C virus strain H77, UniProt P26664 1451-1608)
T3 construct: also called Bait NS3 (100%)
T3 chain: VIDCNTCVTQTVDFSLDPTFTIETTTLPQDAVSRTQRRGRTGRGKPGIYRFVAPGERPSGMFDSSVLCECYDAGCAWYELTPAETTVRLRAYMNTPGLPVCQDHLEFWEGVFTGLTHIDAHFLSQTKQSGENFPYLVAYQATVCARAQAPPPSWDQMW

[4] = biological target: T4, Bait polypeptide of SEQ ID No 90, NS3 (100%), HCV strain H77 nt 4838-5230 (hepatitis C virus strain H77, UniProt P26664 1500-1628)
T4 construct: also called Bait NS3 (100%)
T4 chain: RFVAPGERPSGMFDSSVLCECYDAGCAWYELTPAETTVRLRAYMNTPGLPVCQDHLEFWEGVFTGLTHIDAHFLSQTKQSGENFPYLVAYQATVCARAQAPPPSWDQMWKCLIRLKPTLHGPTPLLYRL

[5] = biological target: T5, SID polypeptide of SEQ ID No 16, NS4B (100%), HCV strain H77 nt 5918-6154 (hepatitis C virus strain H77, UniProt P26664 1860-1936)
T5 construct: Intersection of yeast two-hybrid prey fragments; also called SID NS4B (100%)
T5 sequence: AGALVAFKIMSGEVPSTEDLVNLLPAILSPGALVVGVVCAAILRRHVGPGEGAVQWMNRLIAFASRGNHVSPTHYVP

[6] = biological target: T6, Bait polypeptide of SEQ ID No 93, NS4B (86%)/NS5A (13%), HCV strain H77 nt 5717-6344 (hepatitis C virus strain H77, UniProt P26664 1793-2000)
T6 construct: also called Bait NS4B (86%)/NS5A (13%)
T6 chain: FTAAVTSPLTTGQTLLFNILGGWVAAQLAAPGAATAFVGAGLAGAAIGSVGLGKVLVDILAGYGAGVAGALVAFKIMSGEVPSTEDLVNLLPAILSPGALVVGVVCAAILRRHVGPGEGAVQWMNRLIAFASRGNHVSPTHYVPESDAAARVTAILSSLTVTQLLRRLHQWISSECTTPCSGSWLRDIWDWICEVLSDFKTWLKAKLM

[7] = biological target: T7, Bait polypeptide of SEQ ID No 78, Core (100%), HCV strain H77 nt 342-683 (hepatitis C virus strain H77, UniProt P27958 1-113)
T7 construct: also called Bait Core (100%)
T7 sequence: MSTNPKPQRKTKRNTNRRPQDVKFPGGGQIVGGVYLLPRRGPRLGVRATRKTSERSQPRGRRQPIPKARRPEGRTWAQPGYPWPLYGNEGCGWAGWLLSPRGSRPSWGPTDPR

[8] = biological target: T8, Bait polypeptide of SEQ ID No 95, NS4B (55%)/NS5A (44%), HCV strain H77 nt 5882-6562 (hepatitis C virus strain H77, UniProt P26664 1848-2072)
T8 construct: also called Bait NS4B (55%)/NS5A (44%)
T8 chain: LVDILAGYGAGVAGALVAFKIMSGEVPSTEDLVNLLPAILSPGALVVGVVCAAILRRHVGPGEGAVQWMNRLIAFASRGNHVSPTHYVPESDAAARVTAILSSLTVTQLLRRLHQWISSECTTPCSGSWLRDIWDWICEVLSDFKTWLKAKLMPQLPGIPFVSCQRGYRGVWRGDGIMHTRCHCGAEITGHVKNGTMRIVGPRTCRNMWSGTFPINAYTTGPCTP

[9] = biological target: T9, Bait polypeptide of SEQ ID No 96, NS4B (82%)/NS5A(17%), HCV strain H77 nt 5897-6335 (hepatitis C virus strain H77, UniProt P26664 1853-1997)
T9 construct: also called Bait NS4B (82%)/NS5A(17%)
T9 sequence: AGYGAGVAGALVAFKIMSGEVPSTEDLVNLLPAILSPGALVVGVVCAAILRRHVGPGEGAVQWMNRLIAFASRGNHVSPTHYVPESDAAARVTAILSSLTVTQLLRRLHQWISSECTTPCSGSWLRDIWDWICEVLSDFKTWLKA

[10] = biological target: T10, Bait polypeptide of SEQ ID No 97, NS4B (100%), HCV strain H77 nt 6011-6177 (hepatitis C virus strain H77, UniProt O92972 1891-1944)
T10 construct: also called Bait NS4B (100%)
T10 sequence: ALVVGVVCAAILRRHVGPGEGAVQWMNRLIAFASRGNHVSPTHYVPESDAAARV

[11] = biological target: T11, SID polypeptide of SEQ ID No 23, NS4B (100%), HCV strain H77 nt 5879-6072 (hepatitis C virus strain H77, UniProt Q913V3 1847-1909)
T11 construct: Intersection of yeast two-hybrid prey fragments; also called SID NS4B (100%)
T11 sequence: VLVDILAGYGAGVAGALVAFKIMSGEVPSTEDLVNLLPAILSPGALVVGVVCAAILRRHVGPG

[12] = biological target: T12, Bait polypeptide of SEQ ID No 100, NS4B (8%)/NS5A (91%), HCV strain H77 nt 6182-7034 (hepatitis C virus strain H77, UniProt P27958 1948-2230)
T12 construct: also called Bait NS4B (8%)/NS5A (91%)
T12 chain: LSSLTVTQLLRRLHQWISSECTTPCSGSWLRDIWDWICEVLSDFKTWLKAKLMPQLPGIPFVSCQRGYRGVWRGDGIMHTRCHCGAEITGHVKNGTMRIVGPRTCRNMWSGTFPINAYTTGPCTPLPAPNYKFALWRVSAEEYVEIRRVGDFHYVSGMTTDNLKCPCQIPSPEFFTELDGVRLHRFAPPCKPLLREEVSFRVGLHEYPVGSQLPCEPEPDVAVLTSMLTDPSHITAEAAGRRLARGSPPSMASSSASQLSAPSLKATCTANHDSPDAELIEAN

[13] = biological target: T13, Bait polypeptide of SEQ ID No 101, NS4B (9%)/NS5A (90%), HCV strain H77 nt 6188-6939 (hepatitis C virus strain H77, UniProt P27958 1950-2198)
T13 construct: also called Bait NS4B (9%)/NS5A (90%)
T13 chain: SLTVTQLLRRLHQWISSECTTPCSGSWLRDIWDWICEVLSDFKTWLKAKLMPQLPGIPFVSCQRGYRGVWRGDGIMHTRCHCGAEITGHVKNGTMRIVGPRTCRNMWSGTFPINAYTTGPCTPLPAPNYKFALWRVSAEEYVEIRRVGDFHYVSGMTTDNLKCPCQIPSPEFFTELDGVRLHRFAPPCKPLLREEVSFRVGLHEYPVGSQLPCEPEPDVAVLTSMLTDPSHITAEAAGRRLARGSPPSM

[14] = biological target: T14, Bait polypeptide of SEQ ID No 102, NS5A (100%), HCV strain H77 nt 6317-6576 (hepatitis C virus strain H77, UniProt P26664 1993-2077)
T14 construct: also called Bait NS5A (100%)
T14 chain: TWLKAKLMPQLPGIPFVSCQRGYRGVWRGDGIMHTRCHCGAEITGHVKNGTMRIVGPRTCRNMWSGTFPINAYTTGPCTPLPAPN

[15] = biological target: T15, SID polypeptide of SEQ ID No 28, NS5A (100%), HCV strain H77 nt 6557-6721 (hepatitis C virus strain H77, UniProt P27958 2073-2125)
T15 construct: Intersection of yeast two-hybrid prey fragments; also called SID NS5A (100%)
T15 sequence: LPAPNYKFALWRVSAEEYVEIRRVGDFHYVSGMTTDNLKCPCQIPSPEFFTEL

B1: SID polypeptide of SEQ ID No 1, Core (100%), HCV strain H77 nt 446-600 (other)
chain: LLPRRGPRLGVRATRKTSERSQPRGRRQPIPKARRPEGRTWAQPGYPWPL
notes: Intersection of yeast two-hybrid prey fragments; also called SID Core (100%)
binding result [1]: binds

B2: SID polypeptide of SEQ ID No 12, NS5B (100%), HCV strain H77 nt 7979-8109 (other)
chain: not shown
notes: Intersection of yeast two-hybrid prey fragments; also called SID NS5B (100%)
binding result [2]: binds

B3: SID polypeptide of SEQ ID No 14, E2 (100%), HCV strain H77 nt 1784-1888 (other)
chain: ERPYCWHYPPRPCGIVPAKSVCGPVYCFTPSPV
notes: Intersection of yeast two-hybrid prey fragments; also called SID E2 (100%)
binding result [3]: binds

B4: SID polypeptide of SEQ ID No 15, E2 (100%), HCV strain H77 nt 1871-1968 (other)
chain: PSPVVVGTTDRSGAPTYSWGANDTDVFVLNN
notes: as for B3
binding result [4]: binds

B5: Bait polypeptide of SEQ ID No 91, NS3 (1%)/NS4A (98%), HCV strain H77 nt 5310-5467 (other)
chain: TSTWVLVGGVLAALAAYCLSTGCVVIVGRIVLSGKPAIIPDREVLYQEFDE
notes: also called Bait NS3 (1%)/NS4 A (98%)
binding result [5]: binds

B6: SID polypeptide of SEQ ID No 18, NS4B (53%)/NS5A (46%), HCV strain H77 nt 6197-6310 (other)
chain: VTQLLRRLHQWISSECTTPCSGSWLRDIWDWICEVL
notes: Intersection of yeast two-hybrid prey fragments; also called SID NS4B (53%)/NS5A (46%)
binding result [6]: binds

B7: SID polypeptide of SEQ ID No 2, NS3 (100%), HCV strain H77 nt 4814-4922 (other)
chain: GRGKPGIYRFVAPGERPSGMFDSSVLCECYDAGCA
notes: Intersection of yeast two-hybrid prey fragments; also called SID NS3 (100%)
binding result [7]: binds

B8: SID polypeptide of SEQ ID No 20, NS5B (100%), HCV strain H77 nt 9083-9222 (other)
chain: not shown
notes: as for B2
binding result [8]: binds

B9: SID polypeptide of SEQ ID No 21, NS4B (100%), HCV strain H77 nt 5819-6080 (other)
chain: TAFVGAGLAGAAIGSVGLGKVLVDILAGYGAGVAGALVAFKIMSGEVPSTEDLVNLLPAILSPGALVVGVVCAAILRRHVGPGEGA
notes: Intersection of yeast two-hybrid prey fragments; also called SID NS4B (100%)
binding result [9]: binds

B10: SID polypeptide of SEQ ID No 22, E2 (100%), HCV strain H77 nt 1823-1955 (other)
chain: GIVPAKSVCGPVYCFTPSPVVVGTTDRSGAPTYSWGANDTDVF
notes: as for B3
binding result [10]: binds

B11: Bait polypeptide of SEQ ID No 98, NS4B (30%)/NS5A (69%), HCV strain H77 nt 6107-6605 (other)
chain: ASRGNHVSPTHYVPESDAAARVTAILSSLTVTQLLRRLHQWISSECTTPCSGSWLRDIWDWICEVLSDFKTWLKAKLMPQLPGIPFVSCQRGYRGVWRGDGIMHTRCHCGAEITGHVKNGTMRIVGPRTCRNMWSGTFPINAYTTGPCTPLPAPNYKFALWRVSA
notes: also called Bait NS4B (30%)/NS5A (69%)
binding result [11]: binds

B12: SID polypeptide of SEQ ID No 25, E1 (100%), HCV strain H77 nt 1226-1458 (other)
chain: RRHWTTQDCNCSIYPGHITGHRMAWDMMMNWSPTAALVVAQLLRIPQAIMDMIAGAHWGVLAGIAYFSMVGNWAKV
notes: Intersection of yeast two-hybrid prey fragments; also called SID E1 (100%)
binding result [12]: binds

B13: SID polypeptide of SEQ ID No 26, NS4B (70%)/NS5A (28%), HCV strain H77 nt 6176-6291 (other)
chain: AILSSLTVTQLLRRLHQWISSECTTPCSGSWLRDIWD
notes: Intersection of yeast two-hybrid prey fragments; also called SID NS4B (70%)/NS5A (28%)
binding result [13]: binds

B14: SID polypeptide of SEQ ID No 27, NS3 (100%), HCV strain H77 nt 4784-4928 (other)
chain: VSRTQRRGRTGRGKPGIYRFVAPGERPSGMFDSSVLCECYDAGCAWY
notes: as for B7
binding result [14]: binds

B15: Bait polypeptide of SEQ ID No 103, NS5A (100%), HCV strain H77 nt 6440-6727 (other)
chain: EITGHVKNGTMRIVGPRTCRNMWSGTFPINAYTTGPCTPLPAPNYKFALWRVSAEEYVEIRRVGDFHYVSGMTTDNLKCPCQIPSPEFFTELDG
notes: also called Bait NS5A (100%)
binding result [15]: binds

B16: SID polypeptide of SEQ ID No 3, Core (100%), HCV strain H77 nt 380-616 (other)
chain: NTNRRPQDVKFPGGGQIVGGVYLLPRRGPRLGVRATRKTSERSQPRGRRQPIPKARRPEGRTWAQPGYPWPLYGNEG
notes: as for B1
binding result [7]: binds
